{
  "source": "paper PMC6615639",
  "about": "“A broadly neutralizing germline-like human monoclonal antibody against dengue virus envelope domain III” (PLoS Pathogens, 2019)",
  "binders": {"B1": {"name": "m366.6 scFv-Fc (scFv, V domains shown)", "VH": "QLQLQESGGGLVQPGGSLRLSCAASGFTFSSHSMNWIRQAPGKRLEWVSSISSSSSYIYYADSVRGRFTISRDNAKNSLYLQMDSLRAEDTAVYYCARYMAGIWTFDIWGQGTMVTVSS", "VL": "SYELTQPPSVSVAPGKTASISCGGDNIGRKSVHWFQQKPGQAPVLVLYDDSDRPSGIPARFSGSNSGNTATLTISGVEAGDEADYYCQVWARSSDLPNWVFGGGTKLTVL", "notes": "also called mAb m366.6"}},
  "key": {"[1]": {"target": "T1, DENV-1 envelope protein domain III (DIII), fused with IgG1 Fc and a C-terminal Avi-tag (Dengue virus type 1, strain ; …, UniProt B6DXD2)", "T1 construct": "also called DENV-1 DIII; DENV1 DIII", "experiment": "SPR", "settings": "both partners purified"}, "[2]": {"target": "T2, DENV-2 envelope protein domain III (DIII), fused with IgG1 Fc and a C-terminal Avi-tag (Dengue virus type 2, strain ; …)", "T2 construct": "also called DENV-2 DIII; DENV2 DIII", "T2 chain": "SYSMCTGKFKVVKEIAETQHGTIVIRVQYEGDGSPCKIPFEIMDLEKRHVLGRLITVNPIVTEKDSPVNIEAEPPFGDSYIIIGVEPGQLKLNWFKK", "experiment": "SPR", "settings": "both partners purified"}, "[3]": {"target": "T3, DENV-3 envelope protein domain III (DIII), fused with IgG1 Fc and a C-terminal Avi-tag (Dengue virus type 3, strain ; …, UniProt Q99D35)", "T3 construct": "also called DENV-3 DIII; DENV3 DIII", "experiment": "SPR", "settings": "both partners purified"}, "[4]": {"target": "T4, DENV-4 envelope protein domain III (DIII), fused with IgG1 Fc and a C-terminal Avi-tag (Dengue virus type 4, strain ; …, UniProt P09866)", "T4 construct": "also called DENV-4 DIII; DENV4 DIII", "experiment": "SPR", "settings": "both partners purified"}, "[5]": {"target": "T1, DENV-1 envelope protein domain III …", "experiment": "cell-based or functional assay"}, "[6]": {"target": "T2, DENV-2 envelope protein domain III …", "experiment": "cell-based or functional assay"}, "[7]": {"target": "T3, DENV-3 envelope protein domain III …", "experiment": "cell-based or functional assay"}, "[8]": {"target": "T4, DENV-4 envelope protein domain III …", "experiment": "cell-based or functional assay"}},
  "data": [
    {"binder": "B1", "values": [
      {"measurement": "Kd", "setting": "[1]", "value": 0.78, "unit": "nM"},
      {"measurement": "koff", "setting": "[1]", "value": 0.00025, "unit": "s⁻¹"},
      {"measurement": "kon", "setting": "[1]", "value": 320000, "unit": "M⁻¹ s⁻¹"},
      {"measurement": "Kd", "setting": "[2]", "value": 0.29, "unit": "nM"},
      {"measurement": "koff", "setting": "[2]", "value": 0.00025, "unit": "s⁻¹"},
      {"measurement": "kon", "setting": "[2]", "value": 960000, "unit": "M⁻¹ s⁻¹"},
      {"measurement": "Kd", "setting": "[3]", "value": 0.27, "unit": "nM"},
      {"measurement": "koff", "setting": "[3]", "value": 0.00018, "unit": "s⁻¹"},
      {"measurement": "kon", "setting": "[3]", "value": 660000, "unit": "M⁻¹ s⁻¹"},
      {"measurement": "Kd", "setting": "[4]", "value": 1.9, "unit": "nM"},
      {"measurement": "koff", "setting": "[4]", "value": 0.00062, "unit": "s⁻¹"},
      {"measurement": "kon", "setting": "[4]", "value": 330000, "unit": "M⁻¹ s⁻¹"},
      {"measurement": "other", "setting": "[5]", "value": 22, "unit": "µg/mL"},
      {"measurement": "other", "setting": "[6]", "value": 2.4, "unit": "µg/mL"},
      {"measurement": "other", "setting": "[7]", "value": 0.85, "unit": "µg/mL"},
      {"measurement": "other", "setting": "[8]", "value": 0.36, "unit": "µg/mL"}
    ]}
  ]
}
